The values that follow come from paper doi:10.1101/2020.12.03.409318 (bioRxiv, 2020).

The target in this assay is RBD-mFc (Sino Biologicals) (SARS-CoV-2, wild type (Wuhan-Hu-1 …, UniProt P0DTC2)). Description: BLI.

B1: STE90-C11 Fab (Fab, V domains shown)
VH: QVQLVESGGGLVQPGGSLRLSCAASGLTVSSNYMSWVRQAPGKGLEWVSVIYSGGSTYYADSVKGRFTISRDDSKNTLYLQMNSLRAEDTAVYYCARDVADAFDIWGQGTMVTVSS
VL: DIVMTQSPSFLSASVGDRVTITCRASQGISSYLAWYQQKPGKAPKLLIYAASTLQSGVPSRFSGSGSGTEFTLTISSLQPEDFATYYCQQLNSYPPFTFGPGTKVDIK
For B1, the Kd amounted to 8.1 nM.

Usually Kd stands for the concentration at which binding is half-saturated. Read a low Kd as a tighter complex.
